Earlier results in paper PMC10606834, “Is the Neuropeptide PEN a Ligand of GPR83?” (International Journal of Molecular Sciences, 2023).

Legend:
GPR83 = test system: GPR83
Text: G protein-coupled receptor 83 (GPR83), also termed glucocorticoid-induced receptor (GIR), GPR72, KIAA1540, or JP05, is a class A G protein-coupled receptor with predominant expression in the […] and proposed function in the regulation of food intake and in anxiety-like behavior [1, 2, 3]. […] A potential role of GPR83 in regulatory T cell development and function has not been confirmed. […] The present study was initiated to evaluate PEN as a ligand of GPR83. […] While one end of the peptide may be crucial for binding the receptor, an absolute requirement of both peptide termini to be free of another ...

[1] = test system: GPR83 (murine Att20 and STC-1 cells); conditions: pilot screen of peptide hormone library, ref [14]
Text: While the earlier study employed CHO cells from Cricetulus griseus and Neuro2A cells from Mus musculus overexpressing human GPR83 [10], this study used human HEK293 and U2OS c ...

B1: FAM237A: 9 kDa protein, termed family with sequence similarity 237 member A (protein, UniProt A0A1B0GTK4 34-181, looked up)
Protein FAM237A: HSQTDLLALSQADPQCWESSSVLLLEMWKPRVSNTVSGFWDFMIYLKSSENLKHGALFWDLAQLFWDIYVDCVLSRNHGLGRRQLVGEEEKISAAQPQHTRSKQGTYSQLLRTSFLKKKELIEDLISMHVRRSGSSVIGKVNLEIKRK
**Q.** Which results are given for B1?
**A.** GPR83 ligand and agonist (GPR83; comparative evaluation, multiple assay systems, ref [16]): only FAM237A was confirmed as a GPR83 ligand and agonist; interaction with GPR83 (GPR83; multiple luminescence-based interaction and activation assays, ref [16]): confirmed the interaction of FAM237A; activation of GPR83 (GPR83; peptide hormone library screening study, ref [14]): activate GPR83; GPR83-mediated β-arrestin recruitment [1]: activator of GPR83-mediated β-arrestin recruitment
